Where a chain is given by its changes, count along the chain named.
B1: g060a09 (Fab, V domains shown)
VH: GRAQVQLQESGPEVKKPGASVKVSCKASGYTFNSYGIAWVRQVPGQGLEWMGWISPYSGHTNYAEKVQGRVTMTTDTATSTACMELTSLRSDDTAVYFCARDYSSPYHFDYWGQGTWSPSR
VL: LADVVMTQSPSSLSASVGDRVTISCRASQPISTYLNWYQQKPGKAPKILIFGASRLQSGVPSRFSGSGSGTDFSLTITSLQPEDFATYICQQSKSPPYNFGRGTKLEIK
B2: g060h10 (Fab, V domains shown)
VH: EVQLVESGAEVKKPGSSVKVSCKASGGSFSTYAITWVRQAPGQGLEWMGGIIPIFASRDYAQKFQGRVTITADESTRTVYMELSSLRSDDTAVYYCARVLGGTRLYYALNVWGQGTTVTVS
VL: DIQLTQSPSSLSASVGDRVTITCRASQGISNFLAWYQQKPGKVPELLIYGASTLQSGVPSRFSGSGSGTEFTLTINSLQPEDVATYYCQKYDSGLRFTFGPGTKVDIK
B3: g060g11 (Fab, V domains shown)
VH: B2 VH with A33I, I34F, I52N, S57T, A61P, Q62K, R87T, D89E
VL: EIVMTQSPSSLSASVGDRVTISCRASQGISNFLAWFQQKPGQVPKLLIYVASTLQSGVPSRFSGSGSGTDFSLTINGLQPEDVATYYCQRYDSGLIFTFGPGTKVEIK
B4: g060d05 (Fab, V domains shown)
VH: B2 VH with E1K, A24T, A33S, I52N, S57T, S84R, S85N, D89E, L100F, T117L
VL: B3 VL with E1D, I2V, S22T, F36H, V50G, S72T, R90K, K104R
B5: g060d04 (Fab, V domains shown)
VH: B2 VH with E1K, I70V, T117M
VL: B2 VL with I2V, Q3V, L4M, S7F, T69A
B6: g060h02 (Fab, V domains shown)
VH: B2 VH with E6Q, L83P, S84R, D89E, T117L
VL: B2 VL with D1E, Q3V, E70D, T103A
B7: g060f09 (Fab, V domains shown)
VH: EVQLVQSGAEVKKPGSSVKVSCKTEGGTFSTYVISWMRQAPGQGLEWMGGIVPIFNTPNYAQKFQGRVTITADRSTSTAYMELRSLGSEDTAVYYCARVVGGTRSYYALGFWGQGTTVTVS
VL: DIQLTQSPSSLSASVGDSVTITCRASQGISNFLAWYQKKPGKVPRLLIYGASTLQSGVPSRFSGSGSGTDFTLTISSLQPEDVATYYCQEYSNALIFTFGPGTKVHIK
B8: g060c07 (Fab, V domains shown)
VH: KVQLVQSGAEVKKPGESLKISCQASGYGFTVYWIGWVRQPPGKGLEWLGIIYPGDSDTRYNPSFQGQVTISADKSVSTTYLQWSSLKASDTAIYYCARHLDSYDVFTGYNLGGYMDVWGKGTLVTVS
VL: ETTLTQSPGTLSLSPGERATLSCRASQSVSTNYLAWYRQKPGQAPRLLIHGASSRATGIPDRFSGSGSGTDFTLTISRLEPEDFAVYFCQQYGSSPQTFGQGTRLEIK
B9: g060d11 (Fab, V domains shown)
VH: B8 VH
VL: B8 VL
B10: g060g02 (Fab, V domains shown)
VH: B8 VH with K1E, P40L, L123M
VL: B8 VL with E1D, T2I, T3Q

These binders were tested against T1, Ovalbumin (UniProt P01012 2-386) (assay: ELISA, periplasmic extract on coated Ovalbumin).
T1 sequence: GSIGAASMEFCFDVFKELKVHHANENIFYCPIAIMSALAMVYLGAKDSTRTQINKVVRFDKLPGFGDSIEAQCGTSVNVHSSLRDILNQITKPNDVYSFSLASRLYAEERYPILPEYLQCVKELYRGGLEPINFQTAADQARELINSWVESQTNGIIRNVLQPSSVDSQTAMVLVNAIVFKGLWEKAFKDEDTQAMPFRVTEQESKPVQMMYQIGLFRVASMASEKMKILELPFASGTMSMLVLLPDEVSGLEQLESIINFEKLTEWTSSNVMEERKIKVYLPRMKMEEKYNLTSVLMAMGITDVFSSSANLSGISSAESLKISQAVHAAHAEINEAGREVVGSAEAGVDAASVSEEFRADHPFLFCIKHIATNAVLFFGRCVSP

Does B1 bind?
Result: no binding (tested: 10 µg/ml Ovalbumin coat)

Does B2 bind?
Result: no binding (tested: 10 µg/ml Ovalbumin coat)

Does B3 bind?
Result: no binding (tested: 10 µg/ml Ovalbumin coat)

Does B4 bind?
Result: no binding (tested: 10 µg/ml Ovalbumin coat)

Does B5 bind?
Result: no binding (tested: 10 µg/ml Ovalbumin coat)

Does B6 bind?
Result: no binding (tested: 10 µg/ml Ovalbumin coat)

Does B7 bind?
Result: no binding (tested: 10 µg/ml Ovalbumin coat)

Does B8 bind?
Result: no binding (tested: 10 µg/ml Ovalbumin coat)

Does B9 bind?
Result: no binding (tested: 10 µg/ml Ovalbumin coat)

Does B10 bind?
Result: no binding (tested: 10 µg/ml Ovalbumin coat)
